# *1 amine or outer side, *2 acyl side, *3 side chain or, on linkers, in order; H or OH if unused. [ ]: non-standard residue; d: D form. TyrEtNAc = L-tyrosine O-ethyl acetamide, (S)-3-(4-(2-acetamidoethoxy)phenyl)-2-aminopropanoic acid, CC(=O)NCCOc1ccc(C[C@H](N[*:1])C(=O)[*:2])cc1; hF3CF3 = (S)-2-amino-4-(3-(trifluoromethyl)phenyl)butanoic acid, O=C([C@H](CCc1cccc(C(F)(F)F)c1)N[*:1])[*:2]; Cha44F2 = (S)-2-amino-3-(4,4-difluorocyclohexyl)propanoic acid, O=C([C@H](CC1CCC(F)(F)CC1)N[*:1])[*:2]; Trp(4-Cl)(βS-Me) = C[C@@H](c1c[nH]c2cccc(Cl)c12)[C@H](N)C(=O)O; Pro(trans-4-NH2) = O=C([C@@H]1C[C@@H](N[*:3])CN1[*:1])[*:2]; Bip(4'-COOH) = N[C@@H](Cc1ccc(-c2ccc(C(=O)O)cc2)cc1)C(=O)O; 1Nal(3S-Me) = C[C@@H](c1cccc2ccccc12)[C@H](N)C(=O)O; Phe(4-COOH) = N[C@@H](Cc1ccc(C(=O)O)cc1)C(=O)O; h3Pal(5-CN) = N#Cc1cncc(CC[C@H](N)C(=O)O)c1; Phe(4-NH2) = Nc1ccc(C[C@H](N)C(=O)O)cc1; 1Nal = N[C@@H](Cc1cccc2ccccc12)C(=O)O; hTyr = N[C@@H](CCc1ccc(O)cc1)C(=O)O; 4Pal = N[C@@H](Cc1ccncc1)C(=O)O; dDab = NCC[C@@H](N)C(=O)O; Orn = NCCC[C@H](N)C(=O)O; dNMeA = CN[C@H](C)C(=O)O; Dab = NCC[C@H](N)C(=O)O; Nva = CCC[C@H](N)C(=O)O; Dap = NC[C@H](N)C(=O)O; Aib = CC(C)(N)C(=O)O
# Biological target: Recombinant human IL-1β (BioLegend 579404) (human, UniProt P01584 117-269)
# Assay: cell-based or functional assay
row,MRC5 IC50 [nM],Binder
1,0.379,cyclo([TyrEtNAc]W[Phe(4-COOH)]G[Pro(trans-4-NH2)][Trp(4-Cl)(βS-Me)]D[dNMeA]G[Bip(4'-COOH)][4Pal][Dab][dA][hTyr]) (SMILES CC(=O)NCCOc1ccc(C[C@@H]2NC(=O)[C@H](CCc3ccc(O)cc3)NC(=O)[C@@H](C)NC(=O)[C@H](CCN)NC(=O)[C@H](Cc3ccncc3)NC(=O)[C@H](Cc3ccc(-c4ccc(C(=O)O)cc4)cc3)NC(=O)CNC(=O)[C@@H](C)N(C)C(=O)[C@H](CC(=O)O)NC(=O)[C@H]([C@@H](C)c3c[nH]c4cccc(Cl)c34)NC(=O)[C@@H]3C[C@@H](N)CN3C(=O)CNC(=O)[C@H](Cc3ccc(C(=O)O)cc3)NC(=O)[C@H](Cc3c[nH]c4ccccc34)NC2=O)cc1) [SEQ ID NO: 134 (Example No. 134)]
2,0.09,cyclo([TyrEtNAc]W[Phe(4-COOH)]G[Pro(trans-4-NH2)][1Nal(3S-Me)]D[dNMeA]G[Bip(4'-COOH)]WS[dA][hTyr]) (SMILES CC(=O)NCCOc1ccc(C[C@@H]2NC(=O)[C@H](CCc3ccc(O)cc3)NC(=O)[C@@H](C)NC(=O)[C@H](CO)NC(=O)[C@H](Cc3c[nH]c4ccccc34)NC(=O)[C@H](Cc3ccc(-c4ccc(C(=O)O)cc4)cc3)NC(=O)CNC(=O)[C@@H](C)N(C)C(=O)[C@H](CC(=O)O)NC(=O)[C@H]([C@@H](C)c3cccc4ccccc34)NC(=O)[C@@H]3C[C@@H](N)CN3C(=O)CNC(=O)[C@H](Cc3ccc(C(=O)O)cc3)NC(=O)[C@H](Cc3c[nH]c4ccccc34)NC2=O)cc1) [SEQ ID NO: 128 (Example No. 128)]
3,0.0828,cyclo([TyrEtNAc]W[Phe(4-COOH)]G[Pro(trans-4-NH2)][1Nal(3S-Me)]N[dNMeA]G[Bip(4'-COOH)]W[Dap][dA][hTyr]) (SMILES CC(=O)NCCOc1ccc(C[C@@H]2NC(=O)[C@H](CCc3ccc(O)cc3)NC(=O)[C@@H](C)NC(=O)[C@H](CN)NC(=O)[C@H](Cc3c[nH]c4ccccc34)NC(=O)[C@H](Cc3ccc(-c4ccc(C(=O)O)cc4)cc3)NC(=O)CNC(=O)[C@@H](C)N(C)C(=O)[C@H](CC(N)=O)NC(=O)[C@H]([C@@H](C)c3cccc4ccccc34)NC(=O)[C@@H]3C[C@@H](N)CN3C(=O)CNC(=O)[C@H](Cc3ccc(C(=O)O)cc3)NC(=O)[C@H](Cc3c[nH]c4ccccc34)NC2=O)cc1) [SEQ ID NO: 129 (Example No. 129)]
4,0.37,cyclo([TyrEtNAc]W[Phe(4-COOH)]G[Pro(trans-4-NH2)][1Nal(3S-Me)]D[dNMeA]G[Bip(4'-COOH)]WL[dDab][hTyr]) (SMILES CC(=O)NCCOc1ccc(C[C@@H]2NC(=O)[C@H](CCc3ccc(O)cc3)NC(=O)[C@@H](CCN)NC(=O)[C@H](CC(C)C)NC(=O)[C@H](Cc3c[nH]c4ccccc34)NC(=O)[C@H](Cc3ccc(-c4ccc(C(=O)O)cc4)cc3)NC(=O)CNC(=O)[C@@H](C)N(C)C(=O)[C@H](CC(=O)O)NC(=O)[C@H]([C@@H](C)c3cccc4ccccc34)NC(=O)[C@@H]3C[C@@H](N)CN3C(=O)CNC(=O)[C@H](Cc3ccc(C(=O)O)cc3)NC(=O)[C@H](Cc3c[nH]c4ccccc34)NC2=O)cc1) [SEQ ID NO: 126 (Example No. 126)]
5,0.0939,cyclo([TyrEtNAc]W[Phe(4-COOH)]G[Pro(trans-4-NH2)][Trp(4-Cl)(βS-Me)]D[dNMeA]G[Bip(4'-COOH)]KL[dA][hF3CF3]) (SMILES CC(=O)NCCOc1ccc(C[C@@H]2NC(=O)[C@H](CCc3cccc(C(F)(F)F)c3)NC(=O)[C@@H](C)NC(=O)[C@H](CC(C)C)NC(=O)[C@H](CCCCN)NC(=O)[C@H](Cc3ccc(-c4ccc(C(=O)O)cc4)cc3)NC(=O)CNC(=O)[C@@H](C)N(C)C(=O)[C@H](CC(=O)O)NC(=O)[C@H]([C@@H](C)c3c[nH]c4cccc(Cl)c34)NC(=O)[C@@H]3C[C@@H](N)CN3C(=O)CNC(=O)[C@H](Cc3ccc(C(=O)O)cc3)NC(=O)[C@H](Cc3c[nH]c4ccccc34)NC2=O)cc1) [SEQ ID NO: 137 (Example No. 137)]
6,0.31,cyclo([TyrEtNAc]W[Phe(4-COOH)]G[Pro(trans-4-NH2)][Trp(4-Cl)(βS-Me)]D[dNMeA]G[Bip(4'-COOH)][4Pal]L[dA][hTyr]) (SMILES CC(=O)NCCOc1ccc(C[C@@H]2NC(=O)[C@H](CCc3ccc(O)cc3)NC(=O)[C@@H](C)NC(=O)[C@H](CC(C)C)NC(=O)[C@H](Cc3ccncc3)NC(=O)[C@H](Cc3ccc(-c4ccc(C(=O)O)cc4)cc3)NC(=O)CNC(=O)[C@@H](C)N(C)C(=O)[C@H](CC(=O)O)NC(=O)[C@H]([C@@H](C)c3c[nH]c4cccc(Cl)c34)NC(=O)[C@@H]3C[C@@H](N)CN3C(=O)CNC(=O)[C@H](Cc3ccc(C(=O)O)cc3)NC(=O)[C@H](Cc3c[nH]c4ccccc34)NC2=O)cc1) [SEQ ID NO: 135 (Example No. 135)]
7,0.214,cyclo([TyrEtNAc]W[Phe(4-COOH)]G[Pro(trans-4-NH2)][Trp(4-Cl)(βS-Me)]D[dNMeA]G[Bip(4'-COOH)]KS[dA][hTyr]) (SMILES CC(=O)NCCOc1ccc(C[C@@H]2NC(=O)[C@H](CCc3ccc(O)cc3)NC(=O)[C@@H](C)NC(=O)[C@H](CO)NC(=O)[C@H](CCCCN)NC(=O)[C@H](Cc3ccc(-c4ccc(C(=O)O)cc4)cc3)NC(=O)CNC(=O)[C@@H](C)N(C)C(=O)[C@H](CC(=O)O)NC(=O)[C@H]([C@@H](C)c3c[nH]c4cccc(Cl)c34)NC(=O)[C@@H]3C[C@@H](N)CN3C(=O)CNC(=O)[C@H](Cc3ccc(C(=O)O)cc3)NC(=O)[C@H](Cc3c[nH]c4ccccc34)NC2=O)cc1) [SEQ ID NO: 138 (Example No. 138)]
8,0.114,cyclo([TyrEtNAc]W[Phe(4-COOH)]G[Pro(trans-4-NH2)][Trp(4-Cl)(βS-Me)]D[dNMeA]G[Bip(4'-COOH)][1Nal][Dap][Aib][h3Pal(5-CN)]) (SMILES CC(=O)NCCOc1ccc(C[C@@H]2NC(=O)[C@H](CCc3cncc(C#N)c3)NC(=O)C(C)(C)NC(=O)[C@H](CN)NC(=O)[C@H](Cc3cccc4ccccc34)NC(=O)[C@H](Cc3ccc(-c4ccc(C(=O)O)cc4)cc3)NC(=O)CNC(=O)[C@@H](C)N(C)C(=O)[C@H](CC(=O)O)NC(=O)[C@H]([C@@H](C)c3c[nH]c4cccc(Cl)c34)NC(=O)[C@@H]3C[C@@H](N)CN3C(=O)CNC(=O)[C@H](Cc3ccc(C(=O)O)cc3)NC(=O)[C@H](Cc3c[nH]c4ccccc34)NC2=O)cc1) [SEQ ID NO: 130 (Example No. 130)]
9,0.432,cyclo([TyrEtNAc]W[Phe(4-COOH)]G[Pro(trans-4-NH2)][1Nal(3S-Me)]D[dNMeA]G[Bip(4'-COOH)]W[Orn][Aib][hTyr]) (SMILES CC(=O)NCCOc1ccc(C[C@@H]2NC(=O)[C@H](CCc3ccc(O)cc3)NC(=O)C(C)(C)NC(=O)[C@H](CCCN)NC(=O)[C@H](Cc3c[nH]c4ccccc34)NC(=O)[C@H](Cc3ccc(-c4ccc(C(=O)O)cc4)cc3)NC(=O)CNC(=O)[C@@H](C)N(C)C(=O)[C@H](CC(=O)O)NC(=O)[C@H]([C@@H](C)c3cccc4ccccc34)NC(=O)[C@@H]3C[C@@H](N)CN3C(=O)CNC(=O)[C@H](Cc3ccc(C(=O)O)cc3)NC(=O)[C@H](Cc3c[nH]c4ccccc34)NC2=O)cc1) [SEQ ID NO: 127 (Example No. 127)]
10,0.37,cyclo([TyrEtNAc]W[Phe(4-COOH)]G[Pro(trans-4-NH2)][Trp(4-Cl)(βS-Me)]D[dNMeA]G[Bip(4'-COOH)][1Nal][Orn][Aib]G) (SMILES CC(=O)NCCOc1ccc(C[C@@H]2NC(=O)CNC(=O)C(C)(C)NC(=O)[C@H](CCCN)NC(=O)[C@H](Cc3cccc4ccccc34)NC(=O)[C@H](Cc3ccc(-c4ccc(C(=O)O)cc4)cc3)NC(=O)CNC(=O)[C@@H](C)N(C)C(=O)[C@H](CC(=O)O)NC(=O)[C@H]([C@@H](C)c3c[nH]c4cccc(Cl)c34)NC(=O)[C@@H]3C[C@@H](N)CN3C(=O)CNC(=O)[C@H](Cc3ccc(C(=O)O)cc3)NC(=O)[C@H](Cc3c[nH]c4ccccc34)NC2=O)cc1) [SEQ ID NO: 132 (Example No. 132)]
11,0.396,cyclo([TyrEtNAc]W[Phe(4-COOH)]G[Pro(trans-4-NH2)][Trp(4-Cl)(βS-Me)]D[dNMeA]G[Bip(4'-COOH)][4Pal][Nva][dA][Cha44F2]) (SMILES CCC[C@@H]1NC(=O)[C@H](Cc2ccncc2)NC(=O)[C@H](Cc2ccc(-c3ccc(C(=O)O)cc3)cc2)NC(=O)CNC(=O)[C@@H](C)N(C)C(=O)[C@H](CC(=O)O)NC(=O)[C@H]([C@@H](C)c2c[nH]c3cccc(Cl)c23)NC(=O)[C@@H]2C[C@@H](N)CN2C(=O)CNC(=O)[C@H](Cc2ccc(C(=O)O)cc2)NC(=O)[C@H](Cc2c[nH]c3ccccc23)NC(=O)[C@H](Cc2ccc(OCCNC(C)=O)cc2)NC(=O)[C@H](CC2CCC(F)(F)CC2)NC(=O)[C@@H](C)NC1=O) [SEQ ID NO: 136 (Example No. 136)]
12,0.766,cyclo([TyrEtNAc]W[Phe(4-COOH)]G[Pro(trans-4-NH2)][Trp(4-Cl)(βS-Me)]D[dNMeA]G[Bip(4'-COOH)][1Nal]S[dA][Phe(4-NH2)]) (SMILES CC(=O)NCCOc1ccc(C[C@@H]2NC(=O)[C@H](Cc3ccc(N)cc3)NC(=O)[C@@H](C)NC(=O)[C@H](CO)NC(=O)[C@H](Cc3cccc4ccccc34)NC(=O)[C@H](Cc3ccc(-c4ccc(C(=O)O)cc4)cc3)NC(=O)CNC(=O)[C@@H](C)N(C)C(=O)[C@H](CC(=O)O)NC(=O)[C@H]([C@@H](C)c3c[nH]c4cccc(Cl)c34)NC(=O)[C@@H]3C[C@@H](N)CN3C(=O)CNC(=O)[C@H](Cc3ccc(C(=O)O)cc3)NC(=O)[C@H](Cc3c[nH]c4ccccc34)NC2=O)cc1) [SEQ ID NO: 133 (Example No. 133)]
13,0.0498,cyclo([TyrEtNAc]W[Phe(4-COOH)]G[Pro(trans-4-NH2)][Trp(4-Cl)(βS-Me)]D[dNMeA]G[Bip(4'-COOH)][1Nal]L[dA][hTyr]) (SMILES CC(=O)NCCOc1ccc(C[C@@H]2NC(=O)[C@H](CCc3ccc(O)cc3)NC(=O)[C@@H](C)NC(=O)[C@H](CC(C)C)NC(=O)[C@H](Cc3cccc4ccccc34)NC(=O)[C@H](Cc3ccc(-c4ccc(C(=O)O)cc4)cc3)NC(=O)CNC(=O)[C@@H](C)N(C)C(=O)[C@H](CC(=O)O)NC(=O)[C@H]([C@@H](C)c3c[nH]c4cccc(Cl)c34)NC(=O)[C@@H]3C[C@@H](N)CN3C(=O)CNC(=O)[C@H](Cc3ccc(C(=O)O)cc3)NC(=O)[C@H](Cc3c[nH]c4ccccc34)NC2=O)cc1) [SEQ ID NO: 131 (Example No. 131)]
